The values that follow come from a protein production outcome set (Wang et al. 2014).

The nature of this data set: label from the status in PepcDB records.
For the sequence “MAKKQLSLTRLSFPIFWDLLSKYLTVIINTAMVSHYSNFLVGAMGAGNQILDLFITIFSFLSVGCSVLIAQAIGAKDHVLARKVIHQSLFLNALLGFVCGVLILWHGEYLLYLLKIPQELLKDSEIYLHMLAICLFFDAIGIVLAAIVRVYNMAYWVMFIGFLMDIVVICGNYYVLHYTKSELFGIGLSNIFARIVAIVALFAILFYKLKIHLKIKEMIKLEKEVLKKVLNIGGFSAGENLLWIVQYTIAFAFVASLGEASLSVQTIYFQISMLIMLIGQATSIANEIIVGKLIGARYENIAYKHAWRALYFSVIASALVALLNYLCQDFTMQILGLKEELKNLMIPLFALSIFLEISRTFNIVMVNSLRASGDAKFPFFSGLVFMMGVSLPVGYVLCFHFNLGILGVWIGFCADEFLRGMVNSYRWKSKKWQGKALV”, the protein production entry was “failed”.

Take “MSENQDELLHYRLSLRLGPVHARQRLGIERETEARVFGRDKRSFHLENLTNAPKLIRFCLKAVGLLRRAQANSLKLTTEHNTFVLPDLPSAFEGFRILHLTDLHVDMDEANLQAVIRQIAPLDYDLCVLTGDYRQRTWGPVDDALDGMARLRLAIHGDAYAVLGNHDSVRMVPALEDMGYRLLMNEMVPLERGDSRLYLAGVDDAHYYKVHNLHRAGDDIPAGGISLLLSHTPEIWREAAHAGYDLFLCGHTHGGQLCLPGGIPLTLDSDCPRRLGRGLWQVNGMQGYTSPGAGTSVLNVRLNCPPEVTIHTLTRGPLEHHHHHH”: the protein production result is “failed”.

Turning to “MDPEIQPPPGKAEIKAKIWKLKTAPKIKHFLWKLLSGALATGDNLKRRHIRNHPQCHRCCQEDETSQHLFFDCFYAQQVWRASGIPHQELRTTGITMETKMELLLSSCLANRQPQLFNLAIWILWRLWKSRNQLVFQQKSISWQNTLQRARNDVQEWEDTNTYVQSLNQQVHSSRHQQPTMARTKWQRPPSTWIKYNYDGAFNHQTRNAKAGWLMRDENGVYMGSGQAIGSTTSDSLESEFQALIIAMQHAWSQGYRKVIFEGDSKQVEELMNNEKLNFGRFNWIREGRFWQKRFEEAVFKWVPRTNNQPADILAKHHLQPNQSFKFHYYVPAFITSTLYYDH”, the protein production entry is listed as “failed”.

As for “MERSAIQIPAGRIDDAVAKVDGLVGELMQNTGIPGMAVAIVHGGKTLYAKGFGVRDVGKGGGPDNKVDADTVFQLASVSKSVGATVVAHAVTDNVVTWDTPVVSKLPWFALRDPYVTGQVTIADLYSHRSGLPDHAGDLLEDLGYDRRQVLQRLKYLPLAPFRISYAYTNFGVTAAAEAVAAAAGQSWEDLSDEVLYRPLGMGSTSSRFTDFLARPNHAVNHVKVADRWEARYQRDPDAQSPAGGVSSSLNDMTHWLAMVLADGVYNGRRITSPEALLLVYTPQVISRHPVSPRARASFYGYGFNVGVTSSGRTEYSHSGAFGLGAAANFVVLPSEDLAIIALTNAGPIGVPETLTAEFMDLVQYGQVREDWAALYKKAFAPLNELAGSLVGKQSPANPAPSRPLNDYVGVYANDYWGPATVTYHDGQLRLSLGPKNQTFDLTHWDGDTFTFTLSTENALPGSISKATFAGDTLNLEYYDADKLGTFTRLEHHHHHH”, the protein production result is listed as “failed”.

For the sequence “MLSLLISVKKLFSSFLGILKKEDTRALFFLLATTLLSGTIFYSTVEKLSPLDSLYLSFMTLTTIGYGDVHPVTDLGKIFTMIYATVGLGIMAMFISVVAKSYLYSKQSHHHHHHKNKEHSAEKSSEK”, the protein production result is on record as “failed”.

As for “MASKPVDVMVVNFNTAGLLQPMFDALRRADSERLASYLVVDNASRDDSVQRMAQVCPEALLLSNKQNVGFGRANNQLLAHLKGKYALLLNTDAFVAADSLQKTLDYMDAHPECGVLGVRLEGRDGDLQPSCRYFPTPLNVFVGRTGLGRFFPGVKMVDDMNWDHASVRECDWLPGCFYLVRREVLDKVGLFDPRYFLYYEEVDHCKRVKEAGWKVVFYPHTTVVHIGGESSKSVAELEAASRQISSYQIESELLYFRKHHGVAGLALHMLLVTLGDLVLALKALLKRRGWGAIQACWRHCRATWSLLFKTRYASQPTR”, the protein production entry is “failed”.

With “MTAVSSPACAIAGKPPMLSMRDIWLRLHRWLALCLGLFLALLGLSGSLLELKGPILRWEVGAQMLQLAPGEHGTLLQQDAWIRAASDAYPQLHKVFGAAPPRQGFLESDNVIVFGALKERPGTGIAMIDPYSGEPRGFFVFEDLWLAKLVALHRSLLLPPAWGSNLVLLYGLALLGSLGSGLYLWWPGRRSWWKAASLRPGSRGNRRLREWHNVAAAWLCLPLLLIAGSGAWLARPDLFTWPGAQPMAIKPLFSAAHGHLLLGTPGAWLAFLCGISLPLLYLTGLLLWWRKRAARRAVQSFKETSHDTP”, the protein production entry is given as “failed”.

In the case of “MSVKIVHHKNFLGMIKELMKDAQSVLDIGCGVGATLKDFPCPIKIGVDAHGPYLEKARLATSFLPIKYEAQRIGEIFLAKSVDCVSMIDVIEHMEKGVGYEVLAQAERIAVKRVIVFTPRGFFKQKAEDHYGLGGESFQEHRSGWEIEDFTQRGYQVIVFNQFHDQSNLAFVESYGKDAKPMDALLAWKELR”, the protein production entry is recorded as “not failed”.

On to “MSLEKQIESYYQEIAQLIIDMIPEEWAEVRFYAQEDHDGWKIFFFHYLSASSDEWTKDIDIRDVIKVPQDEFMEKYNELSFCISDFRKDYAEAFGEPWMSFQMTFYASGKFNIDFYYDKNPFDTFLTRLAWQYEHFGTIPEDSFYKETLNEYLEEKAQGKRYPFLEPLKEEEGHHHHHH”, for which the protein production result is reported as “not failed”.

Consider “MNPFQNSFGGHIPQDVAGKQGENVIFIVYNLTDSPDTVDKVKDVCANFSAMIRSMRNRFPDMQFSCTMGFGADAWTRLFPDKGKPKELSTFSEIKGEKYTAVSTPGDLLFHIRAKQMGLCFEFASILDEKLKGAVVSVDETHGFRYMDGKAIIGFVDGTENPAVDENPYHFAVIGEEDADFAGGSYVFVQKYIHDMVAWNALPVEQQEKVIGRHKFNDVELSDEEKPGNAHNAVTNIGDDLKIVRANMPFANTSKGEYGTYFIGYASTFSTTRRMLENMFIGSPAGNTDRLLDFSTAITGTLFFVPSYDLLGELGE”, for which the protein production entry is listed as “not failed”.

Turning to “MNVPDMILYNGKITTLDPSQPEVSAIAITDGLITAVGGDELLNSATEKTKKIDLKRKRAIPGLEHHHHHH”, the protein production entry is given as “not failed”.

For “MNAYSQSLAPANTPLRETFSLDGTWEFRHETDRAWRHAKVPAHWQACFEDLAVSFGSATYRRTFTLPAEWSAREIAIRFGAVSDLATVSINGTEIGRHEGGYLPFEFVIPPALLKAENTVEVLACLPDAYRDESGADFAEIPHGKQSWYGPQGGIWQSVLIEARDPAHISSLRLDPIWPEARLDLKARFASMVAGSLKIEIIGPQGMPVFTGNIPAAGNTLDHSIQLDSVAPWSPDSPNLYTITTILSADGVEIDSRQESFGFRRFEAKDGFLHLNGKPLYLRAALDQDYYPDGFGAPPSLDLLEDQLRKAKAMGLNCLRCHIKVPDPRYYEVADRLGMLIWSEIPNIETFTPASAERLRTTMEGILARDGNHPSIVIWTLINEDWGTRLREAAEQRQWISDMVDWLRVEDPLRLVVDNSACFPNVHVKTDINDYHFYRTAVDRREEWDTLCREFAGNADWTFSTEKEAVRTRKEPLVLSEFGVWGLPDPARLREKNGRDPWWMAYGATWADGTALPQGIEARFRELALEKVFGDLGRFIEKVQWYQYMNLKYEIEVIRTHAPIGGYVITELTDVHWEGNGLMDMARNPRVFAKALPAVNSDIVIAPGAARHAVYEGQTASFDIKVSSGGTALPEGSRLVWEFGAEKGEIPLPAMAPMQVHNAPITTTADAVPVPAIQKARFQVVSPDGSVLSQNFETLAVYGKRDALPPIRFASNDDGISERLSALGHVSVSPHEADVFITKDIDADRVEAIHSGQRVLQIVDKDPGRLRDDAPPRDGPMSIEIDPGAGGMVSGPYFSFPGYNLVNRHKSIWRGDWVGNFSWLRRDGVFAHVPGGPLFDLSFTGVAPHQVMTGLRPWEFQGRVYAGVVIGWVHKPAAFIIEKRLGRGKLVATTFRLHQEAPDVDPLATALYDGLFALATRP”, the protein production entry was “failed”.

Consider “MKGLFKNKSRLPGEIVRQTRDLIALAESEEEETDARNSKRLGICAELCRNIRDLKSILYGNGEAEPVPEACLLLTQEFFRADTLRPLIKSIPKLDLEARKDATQIVANLQKQQVEFRLVASEYLESNLDVIDSLVEGIDHDHELALHYTGMLKECVRHQVVAKYILESKNLEKFFDYVQLPYFDVATDASKIFRELLTRHKSTVAEYLAKNYEWFFAEYNTKLLEKGSYFTKRQASKLLGDVLMDRSNSGVMVKYVSSLDNLRIMMNLLREPTKNIQLEAFHIFKLFVANENKPEDIVAILVANRTKILRLFADLKPEKEDVGFETDKALVMNEIATLSLLDIKTADR”, for which the protein production entry was “failed”.
